# Source: publication PMC12354661
# Key:
# [1] = target: T1, C-type lectin-like molecule-1 (CLL-1), immobilized on magnetic beads or SPR chip (UniProt Q5QGZ9); assay: flow cytometry (bead binding); settings: Flow cytometry: 100 nM FAM-aptamer, 10 uL MB-CLL-1 in 200 uL DPBS, room temperature, 30 min, 150 rpm, 3 DPBS washes, SPR buffer and temperature not stated
# T1 sequence: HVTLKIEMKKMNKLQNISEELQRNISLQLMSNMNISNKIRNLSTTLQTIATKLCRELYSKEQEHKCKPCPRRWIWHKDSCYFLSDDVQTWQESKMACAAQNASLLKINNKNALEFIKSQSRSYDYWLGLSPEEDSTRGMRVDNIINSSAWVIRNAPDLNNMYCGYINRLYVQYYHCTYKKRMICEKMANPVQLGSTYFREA
# [2] = target: T1, C-type lectin-like molecule-1 (CLL-1), immobilized on magnetic beads or SPR chip; assay: SPR; settings: aptamer 0.000244-0.0625 uM, Flow cytometry: 100 nM FAM-aptamer, 10 uL MB-CLL-1 in 200 uL DPBS, room temperature, 30 min, 150 rpm, 3 DPBS washes, SPR buffer and temperature not stated
sequence,measurement,setting,value
TCGCGAAGGGTGGGGACTGCTCGGGATTGCGGATGC [Aptamer-1 (Apt-1)],binding signal (% FITC-positive beads),"[1]; 100 nM aptamer, text gives 3.28",3.26
CACGAACCGGGGAGGGCGGGCGGGTTGGTGTCGTGC [Aptamer-3 (Apt-3)],binding signal (% FITC-positive beads),[1],1.23
AACACTGGGGGCTGCTCGGGATTGTCGGACGTGGTG [Aptamer-4 (Apt-4)],binding signal (% FITC-positive beads),[1]; 100 nM aptamer,2.84
ATTACCAGGGACCGAAGGCAAAACTATGATCGGTGG [Aptamer-2 (Apt-2)],Kd,[2],15.5 nM
same,binding signal (% FITC-positive beads),[1]; 100 nM aptamer,94.3
same,binding signal (% FITC-positive beads),"[1]; 100 nM aptamer, specificity experiment",100
